Substrate: NCC(=O)N1CCC[C@H]1C(=O)NCC(=O)N1CCC[C@H]1C(=O)Nc1cc2oc3cc(=[N+](CCCS(=O)(=O)O)CCCS(=O)(=O)O)ccc-3nc2c2ccccc12
Test: Affinity for DPP4
Details: Homo sapiens

B1: Dipeptidyl peptidase 4 (Homo sapiens), P27487 (protein)
chain: MKTPWKVLLGLLGAAALVTIITVPVVLLNKGTDDATADSRKTYTLTDYLKNTYRLKLYSLRWISDHEYLYKQENNILVFNAEYGNSSVFLENSTFDEFGHSINDYSISPDGQFILLEYNYVKQWRHSYTASYDIYDLNKRQLITEERIPNNTQWVTWSPVGHKLAYVWNNDIYVKIEPNLPSYRITWTGKEDIIYNGITDWVYEEEVFSAYSALWWSPNGTFLAYAQFNDTEVPLIEYSFYSDESLQYPKTVRVPYPKAGAVNPTVKFFVVNTDSLSSVTNATSIQITAPASMLIGDHYLCDVTWATQERISLQWLRRIQNYSVMDICDYDESSGRWNCLVARQHIEMSTTGWVGRFRPSEPHFTLDGNSFYKIISNEEGYRHICYFQIDKKDCTFITKGTWEVIGIEALTSDYLYYISNEYKGMPGGRNLYKIQLSDYTKVTCLSCELNPERCQYYSVSFSKEAKYYQLRCSGPGLPLYTLHSSVNDKGLRVLEDNSALDKMLQNVQMPSKKLDFIILNETKFWYQMILPPHFDKSKKYPLLLDVYAGPCSQKADTVFRLNWATYLASTENIIVASFDGRGSGYQGDKIMHAINRRLGTFEVEDQIEAARQFSKMGFVDNKRIAIWGWSYGGYVTSMVLGSGSGVFKCGIAVAPVSRWEYYDSVYTERYMGLPTPEDNLDHYRNSTVMSRAENFKQVEYLLIHGTADDNVHFQQSAQISKALVDVGVDFQAMWYTDEDHGIASSTAHQHIYTHMSHFIKQCFSLP
B1 gave a Km of 56 µM.

— ChEMBL document CHEMBL1147688, “Development of a dual fluorogenic and chromogenic dipeptidyl peptidase IV substrate” (Bioorg Med Chem Lett, 2006)
